Patent US20140050743A1, “BINDING PROTEINS TO INHIBITORS OF COAGULATION FACTORS” (BAYER INTELLECTUAL PROPERTY GMBH, priority 2011, published 2014)

Tests used:
[1] = system: rivaroxaban (prothrombin time); experiment: Reversal of rivaroxaban's effect on prothrombin time (PT) in vitro, human plasma; type: biochemical
Experimental: (§1) Citrated blood (0.11 M Na-citrate/blood, 1:9 v/v) was obtained from human donors by venipuncture or from anesthetized Wistar rats (Charles River) by aortic cannulation and centrifuged at 4000 g for 15 minutes for separation of platelet-poor plasma. […] Antidote was added to the Plasma-rivaroxaban mixture and incubated for another 10 minutes at room temperature. The PT assay was run using Recombiplastin (Instrumentation Laboratory) as tissue factor source on an AMAX 200 automated coagulometer (Trinity Biotech) according to manufacturer's instructions. The composition of the final assay volume is ⅓ plasma and ⅔ PT reagent. […] Data are given as means±sem from 5 experiments and represent final assay concentrations (Table 8 and FIGS. 7 and 8).

[2] = system: rivaroxaban (prothrombin time); experiment: Reversal of rivaroxaban's effect on prothrombin time (PT) in vitro, rat plasma; type: biochemical
Experimental: as §1

[3] = Affinity by surface plasmon resonance (Biacore), immobilized Fab, analyte rivaroxaban; type: binding; conditions: Table 6, immobilized Fabs, SPR (Biacore)
Excerpt: “Binding affinity” refers to the strength of the sum total of noncovalent interactions between a single binding site of a molecule and its binding partner. Unless indicated otherwise, as used herein, “binding affinity” refers to intrinsic binding affinity which reflects a 1:1 interaction between members of a binding pair (e.g. an antibody and an antigen). The dissociation constant “KD” is commonly used to describe the affinity between a molecule (such as an antibody) and its binding partner (such as an antigen) i.e. how tightly a ligand binds to a particular protein. Ligand-protein affinities are influenced by non-covalent intermolecular interactions between the two molecules Affinity can be measured by common methods known in the art, including those described herein. In one embodiment, the “KD” or “KD value” according to this invention is measured by using surface plasmon resonance assays using a Biacore T100 instrument (GE Healthcare Biacore, Inc.) according to Example 5. The dissociation equilibrium constant (KD) was calculated based on the ratio of association (kon) and dissociation rated (koff) constants, obtained by fitting sensograms with a first order 1:1 binding model using Biacore Evaluation Software. Other suitable devices are BIACORE(R)-2000, a BIACORE (R)-3000 (BIAcore, Inc., Piscataway, N.J.), or ProteOn XPR36 instrument (Bio-Rad Laboratories, Inc.).
Binding affinities of Fab-fragments were determined by surface plasmon resonance analysis on a Biacore T100 instrument (GE Healthcare Biacore, Inc.). Fab fragments were diluted to a final concentration of 10 μg/ml in 10 mM sodium acetate, pH 4.5, and immobilized on a CM5 chip (GE Healthcare Biacore, Inc.) at levels of 3000-5000RU by amine-coupling chemistry for flow cells 2, 3 and 4, respectively. Flow cell 1 was used as a reference. […] Sensograms were generated after in-line reference cell correction followed by buffer sample subtraction. The dissociation equilibrium constant (KD) was calculated based on the ratio of association and dissociation rated constants, obtained by fitting sensograms with a first order 1:1 binding model using BiaEvaluation Software.

[4] = system: rivaroxaban induced FXa inhibition; experiment: Functional neutralization of rivaroxaban in a biochemical Factor Xa activity assay; conditions: Table 6, 0.05 nM FXa, 0.6 nM rivaroxaban
Experimental: Serial dilutions of test compounds in assay buffer (50 mM HEPES pH 7.8, 250 mM NaCl, 6 mM CaCl2, 0.01% Brij35, 1 mM glutathione, 4 mM EDTA, 0.05% bovine serum albumin) were performed (typical concentrations ranging from 5 μM to 0.0007 μM).
20 μL of the diluted test compounds were placed in 384 well microtiter plates (Greiner, Frickenhausen, Germany), followed by the addition of 10 μL of a 1:400 dilution (250 μM) of the FXa substrate Pefafluor Xa (100 mM in DMSO, Loxo, Dossenheim, Germany) in assay buffer. […] Simultaneously, control reactions without rivaroxaban were started.
During incubation at 32° C., reaction progress curves were monitored using a fluorescence microtiter plate reader (e.g Tecan Ultra Evolution, Tecan Group Ltd., Mannedorf, Switzerland; excitation 360 nm, emission 465 nm).
The dilution of FXa was chosen that in the control reactions the reaction kinetics was linear, and less than 50% of the substrate was consumed (typical final FXa concentration in the assay: 0.05 nM). […] Results are depicted in FIG. 1.

[5] = ELISA-based activity assay of antibody variants with a competition step (300 nM rivaroxaban); type: binding; parameters: key: ++: Variants with an average ratio above wt plus 2×SD (standard deviation of the ratio) were considered as improved; −: variants with a ratio below wt minus 2×SD were considered as reduced in their binding affinity; +/−: All variants with a performance in between both thresholds; −−: Variants with average fluorescence counts below the negative control (non-expressing cells) plus 3×SD were considered as non-binding; conditions: Table 11: single and double amino acid substitutions within M18-G08, variant to wt ratio, 1-3 independent experiments
Experimental: To determine the activity of the mutated antibody variants on compound from Example 1K an equilibrium or dissociation limited ELISA assay format was used. Briefly, MTP plates (Nunc Maxisorp black, 460518) were coated with 4 μg/ml streptavidin (Calbiochem, 189730) diluted in coating buffer (Candor Bioscience GmbH, 121500) and incubated over night at 4° C. After washing with PBST, plates were blocked with 100% Smart Block (Candor Bioscience GmbH, 113500) in PBST for 1 h at room temperature and the washing step was repeated. […] After washing 10 μM Amplex Red (Invitrogen, A12222) were added and incubated for 10 to 30 min at room temperature followed by measurement of the fluorescence signal.
Provided in table 11 are several examples of single and/or double amino acid substitutions introduced into the heavy and/or the light chain of M18-G08 (wt). Performance of the variants was analyzed in quadruples in the ELISA with a competition step and the FXa deinhibition assay (FXa DIA). In the ELISA, averages were calculated and overall performance of variants was evaluated by comparing the variant to wt ratio from 1-3 independent experiments. […] Variants with average fluorescence counts below the negative control (non-expressing cells) plus 3×SD were considered as non-binding and marked with “−−”. […] Variants not analyzed are marked with “nd” (not determined). […]

Molecule | Kd [3] | EC50 [4] | further results
O=C(NC[C@H]1CN(c2ccc(N3CCOCC3=O)cc2)C(=O)O1)c1ccc(Cl)s1 [Rivaroxaban, 5-Chloro-N-({(5S)-2-oxo-3-[4-(3-oxo-4-morpholinyl)phenyl]-1,3-oxazolidin-5-yl}-methyl)-2-thiophenecarboxamide, reference compound] |  |  | PT prolongation by rivaroxaban (x control) ([1]; rivaroxaban 0.17 μM): 1.8 x control; PT prolongation by rivaroxaban (x control) ([1]; rivaroxaban 0.33 μM): 2.2 x control; PT prolongation by rivaroxaban (x control) ([2]; rivaroxaban 0.4 μM): 1.9 x control; PT prolongation by rivaroxaban (x control) ([2]; rivaroxaban 0.8 μM): 2.6 x control
M16-D05: antibody, Vh SEQ ID NO: 213, Vl SEQ ID NO: 214 (antibody, listed as Homo Sapiens, V domains shown) VH: EVQLLESGGGLVQPGGSLRLSCAASGFTFSAYWMAWVRQAPGKGLEWVSSISSSSSYIYYADSVKGRFTISRDNSKNTLYLQMNSLRAEDTAVYYCARVTEGGLDYWGQGTLVTVTS VL: QSVLTQPPSASGTPGQRVTISCSGSSSNIGNNAVNWYQQLPGTAPKLLIYRNNQRPSGVPDRFSGSKSGTSASLAISGLRSEDEADYYCQSYDSSLSGWVFGGGTKLTVL | < 500 nM | < 1000 nM | 
M25-E05: antibody, Vh SEQ ID NO: 219, Vl SEQ ID NO: 220 (antibody, listed as Homo Sapiens, V domains shown) VH: EVQLLESGGGLVQPGGSLRLSCAASGFTFSNAWMSWVRQAPGKGLEWVSSIHWNGGYIGYAESVKGRFTISRDNSKNTLYLQMNSLRAEDTAVYYCARVTLDAVDYWGQGTLVTVTS VL: QSVLTQPPSASGTPGQRVTISCSGSSSNIGNNAVNWYQQLPGTAPKLLIYRNNQRPSGVPDRFSGSKSGTSASLAISGLRSEDEADYYCQSYDNRLTAWVFGGGTKLTVL | < 500 nM | < 1000 nM | 
M18-A10: antibody, Vh SEQ ID NO: 215, Vl SEQ ID NO: 216 (antibody, listed as Homo Sapiens, V domains shown) VH: EVQLLESGGGLVQPGGSLRLSCAASGFTFSSYGMSWVRQAPGKGLEWVSGISGSGGSTYYADSVKGRFTISRDNSKNTLYLQMNSLRAEDTAVYYCARDGGYDELDYWGQGTLVTVTS VL: QSVLTQPPSASGTPGQRVTISCTGSSSNIGAGYVVHWYQQLPGTAPKLLIYDNNKRPSGVPDRFSGSKSGTSASLAISGLRSEDEADYYCAAWDDSLSAWVFGGGTKLTVL | < 500 nM | < 1000 nM | 
M16-A03: antibody, Vh SEQ ID NO: 211, Vl SEQ ID NO: 212 (antibody, listed as Homo Sapiens, V domains shown) VH: EVQLLESGGGLVQPGGSLRLSCAASGFTFSSYAMSWVRQAPGKGLEWVSGISGSGGSTFYADSVKGRFTISRDNSENTLYLQMNSLRAEDTAVYYCARQTSSGLAGYSYGLDPWGQGTLVTVTS VL: QSVLTQPPSASGTPGQRVTISCTGSSSNIGAGYDVHWYQQLPGTAPKLLIYSNNQRPSGVPDRFSGSKSGTSASLAISGLRSEDEADYYCAGWDDSLSGWVFGGGTKLTVL | < 500 nM | < 2000 nM | 
HC_N31S (antibody, V domains shown) VH: EVQLLESGGGLVQPGGSLRLSCAASGFTFSSAWMSWVRQAPGKGLEWVSYISSSGSTIYYADSVKGRFTISRDNSKNTLYLQMNSLRAEDTAVYYCAREGLWAFDYWGQGTLVTVTS VL: QSVLTQPPSASGTPGQRVTISCTGSSSNIGAGYVVHWYQQLPGTAPKLLIYDNNKRPSGVPDRFSGSKSGTSASLAISGLRSEDEADYYCAAWDDRLNGPVFGGGTKLTVLGQ |  |  | ELISA [5]: +/−
